# Measured values: the supplement of paper PMC9112550, “Optimization of the antimicrobial peptide Bac7 by deep mutational scanning” (BMC Biology, 2022)
# Tested on: Escherichia coli TOP10
# Test: shrunken log2 fold change of peptide-encoding DNA abundance (4.5 h post-induction vs induction); higher = less antimicrobial activity (less host growth inhibition)
# Settings: time post-induction: 4.5 h; library: site-saturation at positions 5, 18, 19, 20
# 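Further: peptides expressed intracellularly from a pBAD plasmid library in pooled LB shake-flask culture, induced with 0.3% L-arabinose, DNA abundance read by NGS, three biological replicates, DESeq2 with apeglm shrinkage.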
row,Sequence,shrunken log2 fold change
1,RRIRYRPPRLPRPRPRPTGCPRP,-0.0275
2,RRIRGRPPRLPRPRPRPHQGPRP,-0.0236
3,RRIRSRPPRLPRPRPRPWEGPRP,-0.0466
4,RRIRYRPPRLPRPRPRPLRQPRP,0.0273
5,RRIRPRPPRLPRPRPRPHTFPRP,-0.667
6,RRIRQRPPRLPRPRPRPTCRPRP,0.133
7,RRIRARPPRLPRPRPRPTAGPRP,0.902
8,RRIRERPPRLPRPRPRPQYDPRP,-0.418
9,RRIRNRPPRLPRPRPRPMDVPRP,0.0039
10,RRIRYRPPRLPRPRPRPTAIPRP,-0.774
11,RRIRSRPPRLPRPRPRPGGAPRP,0.574
12,RRIRSRPPRLPRPRPRPITKPRP,-0.083
13,RRIRIRPPRLPRPRPRPHLSPRP,-0.0549
14,RRIRARPPRLPRPRPRPFWVPRP,-0.0841
15,RRIRRRPPRLPRPRPRPFVMPRP,-0.0623
16,RRIRYRPPRLPRPRPRPSENPRP,-0.235
17,RRIRVRPPRLPRPRPRPQVEPRP,-0.272
18,RRIRSRPPRLPRPRPRPVPGPRP,0.137
19,RRIRFRPPRLPRPRPRPESNPRP,0.224
20,RRIRHRPPRLPRPRPRPYTAPRP,-0.735
21,RRIRGRPPRLPRPRPRPKWTPRP,0.392
22,RRIRHRPPRLPRPRPRPSTLPRP,-0.0931
23,RRIRGRPPRLPRPRPRPFMAPRP,0.211
24,RRIRRRPPRLPRPRPRPICDPRP,0.309
25,RRIRSRPPRLPRPRPRPAYHPRP,-0.1

row,Sequence,shrunken log2 fold change
1,RRIRIRPPRLPRPRPRPVSGPRP,0.0231
2,RRIRKRPPRLPRPRPRPDEQPRP,2.64
3,RRIRWRPPRLPRPRPRPEYNPRP,0.195
4,RRIRVRPPRLPRPRPRPEFLPRP,0.0805
5,RRIRMRPPRLPRPRPRPDTHPRP,0.18
6,RRIRERPPRLPRPRPRPNPPPRP,0.181
7,RRIRFRPPRLPRPRPRPNQKPRP,-0.159
8,RRIRGRPPRLPRPRPRPQETPRP,-0.0108
9,RRIRDRPPRLPRPRPRPPNSPRP,-0.0992
10,RRIRNRPPRLPRPRPRPGWKPRP,-0.00965
11,RRIRIRPPRLPRPRPRPLGKPRP,-0.248
12,RRIRCRPPRLPRPRPRPELGPRP,0.211
13,RRIRPRPPRLPRPRPRPVRLPRP,0.238
14,RRIRIRPPRLPRPRPRPKATPRP,-0.141
15,RRIRWRPPRLPRPRPRPLRNPRP,0.847
16,RRIRFRPPRLPRPRPRPDSFPRP,-0.00668
17,RRIRLRPPRLPRPRPRPNIHPRP,-0.621
18,RRIRARPPRLPRPRPRPEQMPRP,1.06
19,RRIRSRPPRLPRPRPRPERLPRP,0.131
20,RRIRHRPPRLPRPRPRPVSVPRP,-0.225
21,RRIRWRPPRLPRPRPRPDAEPRP,1.89
22,RRIRHRPPRLPRPRPRPCVYPRP,-0.62
23,RRIRLRPPRLPRPRPRPNIIPRP,-0.313
24,RRIRNRPPRLPRPRPRPSPFPRP,-0.287
25,RRIRNRPPRLPRPRPRPSDAPRP,0.0594

row,Sequence,shrunken log2 fold change
1,RRIRTRPPRLPRPRPRPHEEPRP,0.0127
2,RRIRQRPPRLPRPRPRPSQTPRP,-0.083
3,RRIRVRPPRLPRPRPRPSHTPRP,-0.0229
4,RRIRYRPPRLPRPRPRPITSPRP,0.0314
5,RRIRPRPPRLPRPRPRPHALPRP,-0.376
6,RRIRARPPRLPRPRPRPEPRPRP,0.679
7,RRIRMRPPRLPRPRPRPTLHPRP,0.294
8,RRIRPRPPRLPRPRPRPAADPRP,0.282
9,RRIRIRPPRLPRPRPRPHKKPRP,-0.0912
10,RRIRQRPPRLPRPRPRPSCFPRP,-0.529
11,RRIRDRPPRLPRPRPRPVWCPRP,0.162
12,RRIRFRPPRLPRPRPRPNFAPRP,-0.125
13,RRIRDRPPRLPRPRPRPTIGPRP,-0.0292
14,RRIRYRPPRLPRPRPRPTQKPRP,-0.0476
15,RRIRNRPPRLPRPRPRPVMCPRP,-0.0207
16,RRIRARPPRLPRPRPRPYRLPRP,-0.275
17,RRIRPRPPRLPRPRPRPLLPPRP,-0.0532
18,RRIRMRPPRLPRPRPRPMAAPRP,0.117
19,RRIRDRPPRLPRPRPRPSQVPRP,-0.426
20,RRIRCRPPRLPRPRPRPALFPRP,0.344
21,RRIRKRPPRLPRPRPRPWRDPRP,0.188
22,RRIRWRPPRLPRPRPRPFAKPRP,0.382
23,RRIRLRPPRLPRPRPRPWISPRP,0.0832
24,RRIRARPPRLPRPRPRPAPNPRP,0.737
25,RRIRNRPPRLPRPRPRPGPPPRP,0.581
